Data set [1] concerns the target neuron-myelin 5-mer signaling complex (NgR1, Lingo-1-Fc, p75, MAG, GT1b-Na) (mouse | human) (UniProt Q9D1T0). Kind of data set: BLI; Blitz (Forte Bio); 5-mer complex (via Lingo-Fc) or p75-Fc loaded at 50 μg/ml on protein A sensors; ADAM17 ECD (E406A) or D+C in solution; HBS (20 mM Hepes, 150 mM NaCl pH 7.4); apparent KD.
In data set [2] the target is p75-Fc (human) (UniProt P08138). Described as above.
Data set [3] concerns the molecule itself. As to the kind of experiment: SEC; individual proteins (Lingo-1, NgR1, p75 31-250) run alone on the SD-200 column, in the presence of GT1b-Na.
Data set [4] deals with T1, neuronal receptor/co-receptor/p75 complex (Lingo-1-Fc, NgR1, p75, formed with GT1b-Na) (mouse | human, UniProt Q9D1T0 35-516; Q9BZR6 30-430; P08138 31-210).
T1 construct: Lingo-1, mouse, residues 35-516; NgR1, human, residues 30-430; p75, human, residues 31-210 (the version used in the pull-down assays); also called NgR1, Lingo-1, p75 complex; neuronal complex; source: assembled from purified HEK293 proteins on protein A-Sepharose in the presence of GT1b-Na; not shown: Fc, C-terminal, kept; Fc, C-terminal, cleaved; copies: + +
T1 sequence (looked up) 1: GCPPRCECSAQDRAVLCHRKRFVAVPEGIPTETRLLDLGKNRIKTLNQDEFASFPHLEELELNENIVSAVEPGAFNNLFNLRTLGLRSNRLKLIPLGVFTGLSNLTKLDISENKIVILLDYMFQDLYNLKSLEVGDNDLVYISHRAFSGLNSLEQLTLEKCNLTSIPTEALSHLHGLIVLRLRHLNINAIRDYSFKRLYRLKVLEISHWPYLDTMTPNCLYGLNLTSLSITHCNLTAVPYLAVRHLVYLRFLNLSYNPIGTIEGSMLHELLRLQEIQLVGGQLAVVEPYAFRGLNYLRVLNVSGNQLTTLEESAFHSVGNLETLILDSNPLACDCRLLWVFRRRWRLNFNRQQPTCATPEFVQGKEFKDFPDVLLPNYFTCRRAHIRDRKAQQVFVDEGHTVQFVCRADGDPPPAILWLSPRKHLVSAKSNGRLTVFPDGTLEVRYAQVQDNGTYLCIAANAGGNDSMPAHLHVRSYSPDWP
T1 sequence (looked up) 2: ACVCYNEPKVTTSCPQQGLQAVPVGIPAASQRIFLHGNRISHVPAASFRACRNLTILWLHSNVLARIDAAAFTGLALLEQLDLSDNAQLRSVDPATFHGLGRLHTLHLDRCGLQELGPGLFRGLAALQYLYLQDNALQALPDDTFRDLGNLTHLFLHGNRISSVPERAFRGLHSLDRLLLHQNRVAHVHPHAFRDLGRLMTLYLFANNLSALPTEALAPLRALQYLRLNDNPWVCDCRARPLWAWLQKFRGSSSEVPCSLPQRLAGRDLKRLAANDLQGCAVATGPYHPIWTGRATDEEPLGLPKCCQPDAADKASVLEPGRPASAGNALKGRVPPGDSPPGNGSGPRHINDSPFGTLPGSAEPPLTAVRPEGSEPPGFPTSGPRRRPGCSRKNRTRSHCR
T1 sequence (looked up) 3: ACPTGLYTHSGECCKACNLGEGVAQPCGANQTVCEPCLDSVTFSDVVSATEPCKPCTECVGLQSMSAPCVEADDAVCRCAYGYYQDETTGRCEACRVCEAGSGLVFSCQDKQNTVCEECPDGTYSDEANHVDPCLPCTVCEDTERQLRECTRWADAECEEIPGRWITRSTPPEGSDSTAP
As to the kind of experiment: pull-down; Lingo-1-Fc as bait on protein A-Sepharose; untagged NgR1, p75 (31-210) and MAG as prey; NgR1 and p75 pre-incubated with GT1b-Na (molar ratio 1:10), with or without GT1b-Na; 10 mM Hepes pH 7.4, 150 mM NaCl, 0.05% Triton-X100; 25°C, 1 h; two washes; SDS-PAGE. The settings on record: both partners purified.

The target of data set [5] is ADAM17 ectodomain (ECD), residues 215-650, active-site mutant E406A (human, UniProt P78536 215-650, E406A). Kind of data set: BLI. In general terms: In BLI a coated tip is dipped into the sample, and binding shifts an interference pattern.

The results in this text go back to publication PMC11938383, “Antibodies targeting ADAM17 reverse neurite outgrowth inhibition by myelin-associated inhibitors” (Life Science Alliance, 2025).

On to “ADAM17 D+C (disintegrin + cysteine-rich domain region) (from UniProt P78536 474-646) (domain or fragment)”, for which the Kd in data set [1] and in data set [2] was 350 nM throughout.

B1: p75 ectodomain (residues 31-250) (domain or fragment, human, UniProt P08138 31-250, looked up)
chain: ACPTGLYTHSGECCKACNLGEGVAQPCGANQTVCEPCLDSVTFSDVVSATEPCKPCTECVGLQSMSAPCVEADDAVCRCAYGYYQDETTGRCEACRVCEAGSGLVFSCQDKQNTVCEECPDGTYSDEANHVDPCLPCTVCEDTERQLRECTRWADAECEEIPGRWITRSTPPEGSDSTAPSTQEPEAPPEQDLIASTVAGVVTTVMGSSQPVVTRGTTDN
notes: p75 (p75 NGF receptor), human, entire ectodomain, residues 31-250; Used in size-exclusion chromatography; migrates as an apparent dimer; One sentence of the methods prints 21-250 for this construct; also called longer version of p75; source: HEK293, purified (protein A Sepharose, size-exclusion on SD-200)
As for B1, in data set [3], the “stoichiometry N” value came out at 2.

B2: MAG (residues 22-504) (domain or fragment, human, UniProt P20916 22-504, looked up)
chain: WGAWMPSSISAFEGTCVSIPCRFDFPDELRPAVVHGVWYFNSPYPKNYPPVVFKSRTQVVHESFQGRSRLLGDLGLRNCTLLLSNVSPELGGKYYFRGDLGGYNQYTFSEHSVLDIVNTPNIVVPPEVVAGTEVEVSCMVPDNCPELRPELSWLGHEGLGEPAVLGRLREDEGTWVQVSLLHFVPTREANGHRLGCQASFPNTTLQFEGYASMDVKYPPVIVEMNSSVEAIEGSHVSLLCGADSNPPPLLTWMRDGTVLREAVAESLLLELEEVTPAEDGVYACLAENAYGQDNRTVGLSVMYAPWKPTVNGTMVAVEGETVSILCSTQSNPDPILTIFKEKQILSTVIYESELQLELPAVSPEDDGEYWCVAENQYGQRATAFNLSVEFAPVLLLESHCAAARDTVQCLCVVKSNPEPSVAFELPSRNVTVNESEREFVYSERSGLVLTSILTLRGQAQAPPRVICTARNLYGAKSLELPFQ
notes: myelin-associated glycoprotein (MAG), human, residues 22-504; also called myelin-associated glycoprotein; source: HEK293, purified (protein A Sepharose, size-exclusion on SD-200); not shown: Fc, C-terminal, cleaved
B2: the binding result in data set [4] is on record as “binds”.

B3: p75-Fc (Fc fusion)
chain: T1 sequence (looked up) 3
B3 gave a Kd in data set [5] of more than 10000 nM.

B4: Lingo-1 ectodomain (35-516) (domain or fragment, mouse, UniProt Q9D1T0 35-516, looked up)
chain: T1 sequence (looked up) 1
notes: Lingo-1 (LINGO-1), mouse, ectodomain, residues 35-516; Used in size-exclusion chromatography; It migrates as a tetramer; source: HEK293, purified (protein A Sepharose, size-exclusion on SD-200)
B4: in data set [3], the “stoichiometry N” value was found to be 4.

A word on the stoichiometry N: it is the number of molecules, sites or subunits per partner or assembly.
